# According to patent publication US20140087995A1 (published 2014):
# Numbered stars: 1 amine (or outer) side, 2 acyl side, 3 side chain; on linkers, the order of the positions; unused ones are H or OH. Bridge positions count the residues as written; N and C are the ends. Side chains are listed from the residue outwards. Ends that are not written are not given here. * marks the point of attachment. C20 diacid = O=C(O)CCCCCCCCCCCCCCCCCCC(=O)*; γGlu = O=C(O)[C@H](CCC(=O)[*:2])N[*:1]
# T1: rat calcitonin receptor (rat, UniProt P32214 25-516)
# T1 construct: whole, on cells; also called rCTR; rat calcitonin (a) receptor
# T1 sequence (looked up): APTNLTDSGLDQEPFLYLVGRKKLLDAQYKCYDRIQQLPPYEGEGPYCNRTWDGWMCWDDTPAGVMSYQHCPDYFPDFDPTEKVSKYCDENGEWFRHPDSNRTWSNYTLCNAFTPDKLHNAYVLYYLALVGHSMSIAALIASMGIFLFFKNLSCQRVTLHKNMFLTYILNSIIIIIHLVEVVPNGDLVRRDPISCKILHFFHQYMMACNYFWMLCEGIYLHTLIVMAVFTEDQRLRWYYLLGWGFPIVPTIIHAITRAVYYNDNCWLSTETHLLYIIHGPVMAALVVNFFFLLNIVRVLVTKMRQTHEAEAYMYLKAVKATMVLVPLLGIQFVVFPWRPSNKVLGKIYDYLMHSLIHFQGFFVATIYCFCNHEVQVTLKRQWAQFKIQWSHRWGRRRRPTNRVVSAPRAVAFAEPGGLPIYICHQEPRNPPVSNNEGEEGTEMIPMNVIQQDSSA
# T2: rat amylin receptor (rat calcitonin receptor + rat RAMP 3) (rat, UniProt P32214 25-516; Q9JJ73 23-147)
# T2 construct: whole, on cells; also called rAmylin-R; rat amylin 3(a) receptor
# T2 sequence (looked up) 1: T1 sequence (looked up)
# T2 sequence (looked up) 2: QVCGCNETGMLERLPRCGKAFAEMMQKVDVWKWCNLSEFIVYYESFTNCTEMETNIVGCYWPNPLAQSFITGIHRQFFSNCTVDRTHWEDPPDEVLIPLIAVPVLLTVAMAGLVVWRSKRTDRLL
# T3: human amylin receptor (amylin 3(a) receptor: human calcitonin receptor co-expressed with RAMP-3) (human, UniProt P30988 25-474; O60896 24-148, limits assumed)
# T3 sequence (looked up) 1: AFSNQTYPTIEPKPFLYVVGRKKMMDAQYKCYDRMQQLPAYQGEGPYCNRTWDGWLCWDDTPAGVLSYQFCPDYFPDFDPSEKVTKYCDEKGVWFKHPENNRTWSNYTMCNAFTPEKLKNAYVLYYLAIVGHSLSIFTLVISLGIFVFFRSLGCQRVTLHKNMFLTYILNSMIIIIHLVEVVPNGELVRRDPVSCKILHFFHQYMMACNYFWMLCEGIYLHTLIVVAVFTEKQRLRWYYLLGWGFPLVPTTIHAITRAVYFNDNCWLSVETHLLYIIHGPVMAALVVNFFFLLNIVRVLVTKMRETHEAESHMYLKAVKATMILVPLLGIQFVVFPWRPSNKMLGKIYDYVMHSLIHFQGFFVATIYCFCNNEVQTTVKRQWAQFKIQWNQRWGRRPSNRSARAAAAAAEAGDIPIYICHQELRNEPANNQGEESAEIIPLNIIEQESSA
# T3 sequence (looked up) 2: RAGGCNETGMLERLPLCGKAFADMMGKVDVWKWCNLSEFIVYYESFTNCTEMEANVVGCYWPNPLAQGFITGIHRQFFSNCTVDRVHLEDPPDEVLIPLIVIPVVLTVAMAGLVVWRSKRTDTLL
# T4: human calcitonin receptor (human, UniProt P30988 25-474)
# T4 sequence (looked up): T3 sequence (looked up) 1
# T5: rat calcitonin receptor (rat, UniProt P32214 25-516)
# T5 construct: whole, on cells; Used as membranes prepared from BHK tk'ts 13 cells transiently transfected with the rat calcitonin receptor (Assay VIII); also called rCTR; rat calcitonin (a) receptor
# T5 sequence (looked up): T1 sequence (looked up)
# T6: rat amylin receptor (rat calcitonin receptor + rat RAMP 3) (rat, UniProt P32214 25-516; Q9JJ73 23-147)
# T6 construct: whole, on cells; Used as membranes prepared from BHK tk'ts 13 cells transiently transfected with rat calcitonin receptor and rat RAMP 3 (Assay VI); also called rAmylin-R; rat amylin 3(a) receptor
# T6 sequence (looked up) 1: T1 sequence (looked up)
# T6 sequence (looked up) 2: T2 sequence (looked up) 2
# B1: N^ε1-[(4S)-4-carboxy-4-[[(4S)-4-carboxy-4-(19-carboxynonadecanoylamino)butanoyl]amino]butanoyl]-[Asp14,Arg17,Pro21,Pro27,Arg35]-h-amylin (peptide)
# peptide: K([γGlu-γGlu-C20 diacid])CNTATCATQRLADFLRHSSPNFGAIPSSTNVGSRTY-NH2
# modifications: disulfide 2-7; N-terminus assumed
# SMILES: CC[C@H](C)[C@H](NC(=O)[C@H](C)NC(=O)CNC(=O)[C@H](Cc1ccccc1)NC(=O)[C@H](CC(N)=O)NC(=O)[C@@H]1CCCN1C(=O)[C@H](CO)NC(=O)[C@H](CO)NC(=O)[C@H](Cc1c[nH]cn1)NC(=O)[C@H](CCCNC(=N)N)NC(=O)[C@H](CC(C)C)NC(=O)[C@H](Cc1ccccc1)NC(=O)[C@H](CC(=O)O)NC(=O)[C@H](C)NC(=O)[C@H](CC(C)C)NC(=O)[C@H](CCCNC(=N)N)NC(=O)[C@H](CCC(N)=O)NC(=O)[C@@H](NC(=O)[C@H](C)NC(=O)[C@@H]1CSSC[C@H](NC(=O)[C@@H](N)CCCCNC(=O)CC[C@H](NC(=O)CC[C@H](NC(=O)CCCCCCCCCCCCCCCCCCC(=O)O)C(=O)O)C(=O)O)C(=O)N[C@@H](CC(N)=O)C(=O)N[C@@H]([C@@H](C)O)C(=O)N[C@@H](C)C(=O)N[C@@H]([C@@H](C)O)C(=O)N1)[C@@H](C)O)C(=O)N1CCC[C@H]1C(=O)N[C@@H](CO)C(=O)N[C@@H](CO)C(=O)N[C@H](C(=O)N[C@@H](CC(N)=O)C(=O)N[C@H](C(=O)NCC(=O)N[C@@H](CO)C(=O)N[C@@H](CCCNC(=N)N)C(=O)N[C@H](C(=O)N[C@@H](Cc1ccc(O)cc1)C(N)=O)[C@@H](C)O)C(C)C)[C@@H](C)O
# notes: synthetic analogue of human amylin; also called compound 52
# B2: N^ε1-[(4S)-4-carboxy-4-[[(4S)-4-carboxy-4-(19-carboxynonadecanoylamino)butanoyl]amino]butanoyl]-[His14,Arg17,Pro21,Pro27]-h-amylin (peptide)
# peptide: K([γGlu-γGlu-C20 diacid])CNTATCATQRLAHFLRHSSPNFGAIPSSTNVGSNTY-NH2
# modifications: disulfide 2-7; N-terminus assumed
# SMILES: CC[C@H](C)[C@H](NC(=O)[C@H](C)NC(=O)CNC(=O)[C@H](Cc1ccccc1)NC(=O)[C@H](CC(N)=O)NC(=O)[C@@H]1CCCN1C(=O)[C@H](CO)NC(=O)[C@H](CO)NC(=O)[C@H](Cc1c[nH]cn1)NC(=O)[C@H](CCCNC(=N)N)NC(=O)[C@H](CC(C)C)NC(=O)[C@H](Cc1ccccc1)NC(=O)[C@H](Cc1c[nH]cn1)NC(=O)[C@H](C)NC(=O)[C@H](CC(C)C)NC(=O)[C@H](CCCNC(=N)N)NC(=O)[C@H](CCC(N)=O)NC(=O)[C@@H](NC(=O)[C@H](C)NC(=O)[C@@H]1CSSC[C@H](NC(=O)[C@@H](N)CCCCNC(=O)CC[C@H](NC(=O)CC[C@H](NC(=O)CCCCCCCCCCCCCCCCCCC(=O)O)C(=O)O)C(=O)O)C(=O)N[C@@H](CC(N)=O)C(=O)N[C@@H]([C@@H](C)O)C(=O)N[C@@H](C)C(=O)N[C@@H]([C@@H](C)O)C(=O)N1)[C@@H](C)O)C(=O)N1CCC[C@H]1C(=O)N[C@@H](CO)C(=O)N[C@@H](CO)C(=O)N[C@H](C(=O)N[C@@H](CC(N)=O)C(=O)N[C@H](C(=O)NCC(=O)N[C@@H](CO)C(=O)N[C@@H](CC(N)=O)C(=O)N[C@H](C(=O)N[C@@H](Cc1ccc(O)cc1)C(N)=O)[C@@H](C)O)C(C)C)[C@@H](C)O
# notes: also called compound 92
# B3: N^ε1-[(4S)-4-carboxy-4-[[(4S)-4-carboxy-4-(19-carboxynonadecanoylamino)butanoyl]amino]butanoyl]-[Asp14,Arg17,Pro21,Pro27,Arg35]-h-amylin (peptide)
# peptide: K([γGlu-γGlu-C20 diacid])CNTATCATQRLADFLRHSSPNFGAIPSSTNVGSRTY-NH2
# modifications: disulfide 2-7; N-terminus assumed
# SMILES: CC[C@H](C)[C@H](NC(=O)[C@H](C)NC(=O)CNC(=O)[C@H](Cc1ccccc1)NC(=O)[C@H](CC(N)=O)NC(=O)[C@@H]1CCCN1C(=O)[C@H](CO)NC(=O)[C@H](CO)NC(=O)[C@H](Cc1c[nH]cn1)NC(=O)[C@H](CCCNC(=N)N)NC(=O)[C@H](CC(C)C)NC(=O)[C@H](Cc1ccccc1)NC(=O)[C@H](CC(=O)O)NC(=O)[C@H](C)NC(=O)[C@H](CC(C)C)NC(=O)[C@H](CCCNC(=N)N)NC(=O)[C@H](CCC(N)=O)NC(=O)[C@@H](NC(=O)[C@H](C)NC(=O)[C@@H]1CSSC[C@H](NC(=O)[C@@H](N)CCCCNC(=O)CC[C@H](NC(=O)CC[C@H](NC(=O)CCCCCCCCCCCCCCCCCCC(=O)O)C(=O)O)C(=O)O)C(=O)N[C@@H](CC(N)=O)C(=O)N[C@@H]([C@@H](C)O)C(=O)N[C@@H](C)C(=O)N[C@@H]([C@@H](C)O)C(=O)N1)[C@@H](C)O)C(=O)N1CCC[C@H]1C(=O)N[C@@H](CO)C(=O)N[C@@H](CO)C(=O)N[C@H](C(=O)N[C@@H](CC(N)=O)C(=O)N[C@H](C(=O)NCC(=O)N[C@@H](CO)C(=O)N[C@@H](CCCNC(=N)N)C(=O)N[C@H](C(=O)N[C@@H](Cc1ccc(O)cc1)C(N)=O)[C@@H](C)O)C(C)C)[C@@H](C)O
# notes: Analogue of human amylin; also called compound 52
# Tests used:
# [1] = target: T1, rat calcitonin receptor; assay: SPA competition with 125I-calcitonin, membranes of BHK cells with rat calcitonin receptor (Assay VIII)
# [2] = target: T2, rat amylin receptor (rat calcitonin …); assay: SPA competition with 125I-rat amylin, membranes of BHK cells with rat calcitonin receptor + rat RAMP3 (Assay VI)
# [3] = target: T3, human amylin receptor (amylin 3(a) …); assay: cell-based or functional assay
# [4] = target: T4, human calcitonin receptor; assay: cell-based or functional assay
# [5] = target: T5, rat calcitonin receptor; assay: SPA competition with 125I-calcitonin, membranes of BHK cells with rat CTR (Assay VIII)
# [6] = target: T6, rat amylin receptor (rat calcitonin …); assay: SPA competition with 125I-rat amylin, membranes of BHK cells with rat CTR + rat RAMP3 (Assay VI)
# Protocol: The binding assay was performed using scintillation proximity assay (SPA) beads (RPNQ0001) from PerkinElmer and cell membranes from the Amylin 3(a)/CRE-luc cells (as described in Assay (II)) were used. Membranes were prepared in the following way; the cells were rinsed with PBS and incubated with Versene for approximately 5 min before harvesting. The cells were flushed with PBS and the cell-suspension was centrifuged for 5 min at 1000 rpm. Cells were homogenized (ultrathurrax) in a buffer containing 20 mM Na-HEPES and 10 mM EDTA (pH 7.4) and centrifuged at 20.000 rpm for 15 min. The resulting pellet was resuspended, homogenized and centrifuged (20.000 rpm, 15 min) in a buffer containing 20 mM Na-HEPES and 0.1 mM EDTA (pH 7.4, buffer 2). The resulting pellet was resuspended in buffer 2 and protein concentration was measured (BCA protein Assay, Pierce). The homogenate was kept cold during the whole procedure. The membranes were kept at −80° C. until use. The assay was performed in a 384 well Optiplate (PerkinElmer) in a total volume of 40 ul. Membranes were mixed with SPA beads. Final concentration of membranes 35 ng/μL final and SPA beads was 0.05 mg/well. Test-compounds were dissolved in DMSO and further diluted in assay buffer (50 mM Hepes, pH 7.4, 1 mM CaCl2, 5 mM MgCl₂, 0.1% OA and 0.02% Tween20). […] The final mixture was incubated with shaking at 400 rpm for 120 min at 25° C. prior to centrifugation (1500 rpm, 10 min). Samples were analyzed on TopCounter™ (Packard). The IC₅₀ was calculated using (one site binding competition analysis) GraphPad Prism5 as a measure of receptor affinity.
# Cells were grown in DMEM with 10% FBS and 1% Pen/Strep. Approximately 48 hours after transfection, the cells were harvested and membranes were prepared.
binder,measurement,setting,value
B1,IC50,[1],159 nM
same,IC50,[2],0.335 nM
B2,Ratio hCT/hAmylin funct.,[3],28
same,hAmylin-R funct. EC50,[3],0.085 nM
same,hCTR funct. EC50,[4],2.38 nM
B3,IC50,[5],159 nM
same,IC50,[6],0.335 nM
